One assay deals with NF-κB. The assay can be described thus: NF-κB luciferase reporter assay in 293T cells. The assay is classed as cell-based, human. The following applies: for NF-κB activity: 1 μg expression construct, 100 ng 5 κB luciferase reporter; for IKK2- and p65-induced NF-κB activity: κB luciferase reporter, 48 hrs. The method, then:
Cell culture, transfection, and reporter gene assays. The E1A-transformed, human kidney cell line, 293, and NIH-3T3 cells were maintained in Dulbecco's Modified Eagle Medium (DMEM) supplemented with 10% fetal calf serum and penicillin-streptomycin at 37° C. in 5% carbon dioxide in tissue culture grade Petri dishes. PRMT-2−/− mouse embryo fibroblasts (MEFs) and wild type MEFs were prepared from day 13.5 embryos and maintained in DMEM supplemented with 10% fetal calf serum. MEFs at passage 4 were used in this experiment. Lipofectamine Plus™ reagent (Boehringer Mannheim) was used to transfect both 293 and NIH-3T3 cells according to directions from the manufacturer. […] TNF-α stimulation of cells was done using recombinant TNF-α (200 U/ml) for 12 hours. […] CAT assays were performed essentially as described in Leung, K. & Nabel, G. J. Nature 333, 776-778 (1988). To analyze the κB-reporter activity in MEFs, cells were transfected with the reporter (2×kB-Luc) and PRL-TK vector (Promega) using FuGENE6 transfection reagent (Roche). Luciferase activity was analyzed by Dual-Luciferase Reporter Assay System (Promega).
To map the domains responsible for inhibition of HIV transcription, truncation and point mutations were made in PRMT2 (FIG. 1D) and co-transfected with an NF-κB reporter in 293T cells. PRMT2-A represents an alternatively spliced form of PRMT2 found in the expressed sequence tag (EST) database. This isoform contains the first 218 amino acids of PRMT2 and differs from full length PRMT2 by the absence of the less conserved COOH-terminal domain. PRMT2-N was generated by introducing a stop codon after amino acid 95 before the putative Ado-Met domain of PRMT2. To analyze the role of the Ado-Met domain further, another mutant, PRMT2-4A, was prepared in which 141ILDV144 (SEQ ID NO:5) in this region were altered to four consecutive alanines to compare the effects of point mutations in this highly conserved region.
The mechanism and site of action of PRMT2 in the NF-κB signaling pathway was further defined by co-transfection of PRMT2 and its mutants with different regulators in this pathway with an NF-κB reporter in 293T cells (FIG. 2D).

A further assay deals with IκB-α. The assay can be described thus: Co-immunoprecipitation with endogenous IκB-α in 293 cells. The assay is classed as binding, human. The note with it: HA-tagged constructs in 293 cells. The text has this:
A polyclonal antibody to recombinant PRMT2 was used to examine the association between endogenous PRMT2 and IκB-α in vivo. […] The domain of IκB-α required for association with PRMT2 was mapped using in vivo immunoprecipitation assays where HA-tagged PRMT2 was coexpressed with truncation mutants of His-tagged IκB-α (FIG. 5B) in 293 cells. The ankyrin domain was both necessary and sufficient for this association (FIG. 5D, lanes 1 and 2). The domain of PRMT2 that interacted with endogenous IκB-α was mapped by immunoprecipitation following expression HA-tagged PRMT2 truncation mutants (FIG. 5C). […] When the ratios of PRMT2 or PRMT2-A binding to IκB-α were compared, both interacted with IκB-α with similar affinity.

The test system of a further assay is p50/p65 complex. The assay can be described thus: NF-κB DNA binding assay (EMSA). It counts as biochemical, human. The note with it: 293 cells cotransfected with p50 and p65 expression vectors. As to the method:
DNA binding assay. Electrophoretic mobility shift assays (EMSAs) were conducted on 10 μg of nuclear extract protein from 293 cells transiently transfected with pRSV p50/p65 expression constructs and pVR1012 PRMT-2-A/PRMT-2-N expression constructs. A modified Dignam procedure (Dignam et al. Nucleic Acids Res. 11, 1475-1489 (1983)) was used to prepare nuclear extracts from 293 cells. Perkins, N. D. et al. Science 275, 523-527 (1997). NF-KB DNA binding was assayed using a double-stranded 32P-labeled κB probe (Geneka Biotechnology). DNA binding assays were performed as described previously. Perkins et al. Science 275, 523-527 (1997). Supershifting was done using NF-κB p65 (C-20) and NF-κB p50 (H-119) (Santa Cruz). GST-PRMT-2-A fusion proteins were expressed in BL21 (DE3) cells and extracts were prepared as described previously. Smith, D. B. & Johnson, K. S. Gene 67, 31-40 (1988).
For orientation: Mobility shift assays separate free from complexed probe on a gel.

In assay [1] the test system is HIV-1, HIV-2, HTLV-1, or HTLV-2 reporter plasmids. In words: CAT reporter assay with viral reporter plasmids in 293 cells. It counts as cell-based, human. As to the method: Cell culture, transfection, and reporter gene assays. The E1A-transformed, human kidney cell line, 293, and NIH-3T3 cells were maintained in Dulbecco's Modified Eagle Medium (DMEM) supplemented with 10% fetal calf serum and penicillin-streptomycin at 37° C. in 5% carbon dioxide in tissue culture grade Petri dishes. PRMT-2−/− mouse embryo fibroblasts (MEFs) and wild type MEFs were prepared from day 13.5 embryos and maintained in DMEM supplemented with 10% fetal calf serum. MEFs at passage 4 were used in this experiment. Lipofectamine Plus™ reagent (Boehringer Mannheim) was used to transfect both 293 and NIH-3T3 cells according to directions from the manufacturer. […] TNF-α stimulation of cells was done using recombinant TNF-α (200 U/ml) for 12 hours. Transfected cells were harvested at 36 hours, and CAT activity was assayed on 10 to 100 μg of protein from whole cell extracts. CAT assays were performed essentially as described in Leung, K. & Nabel, G. J. Nature 333, 776-778 (1988). To analyze the κB-reporter activity in MEFs, cells were transfected with the reporter (2×kB-Luc) and PRL-TK vector (Promega) using FuGENE6 transfection reagent (Roche). Luciferase activity was analyzed by Dual-Luciferase Reporter Assay System (Promega). […]
(In a reporter assay the amount or activity of a reporter protein is the signal.)

Here are results for 2 molecules from US20060239990A1, “Protein Arginine N-Methyltransferase 2 (PRMT-2)” (priority 2003, published 2006).

Sequence of IκB-α (P25963 whole entry, the tested form may be a part): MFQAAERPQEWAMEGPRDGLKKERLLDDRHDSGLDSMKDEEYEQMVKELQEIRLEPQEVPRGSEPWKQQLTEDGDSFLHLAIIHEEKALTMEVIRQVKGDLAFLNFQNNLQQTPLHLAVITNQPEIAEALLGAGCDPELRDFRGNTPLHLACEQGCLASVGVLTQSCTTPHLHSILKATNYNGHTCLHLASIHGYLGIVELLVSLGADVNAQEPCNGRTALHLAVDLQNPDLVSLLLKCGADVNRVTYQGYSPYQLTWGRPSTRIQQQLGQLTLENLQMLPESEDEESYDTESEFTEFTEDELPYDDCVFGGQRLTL

B1: PRMT2-N: generated by introducing a stop codon after amino acid 95 of PRMT-2, SEQ ID NO:4 (protein)
chain: MATSGDCPRSESQGEEPAECSEAGLLQEGVQPEEFVAIADYAATDETQLSFLRGEKILILRQTTADWWWGERAGCCGYIPANHVGKHVDEYDPED
modifications: A synthetic PRMT-2-N polypeptide
With B1, in the assay on NF-κB, the NF-κB activity entry was “did not”; the “IKK2- and p65-induced NF-κB activity” value is recorded as “unable to block this effect”. Besides, the “association with endogenous IκB-α” value in the assay with IκB-α was “did not associate”. Besides, the “NF-κB DNA binding in nuclear extracts of transfected cells” value with p50/p65 complex was “did not affect NF-κB DNA binding”.

B2: PRMT2-A: alternatively spliced form containing the first 218 amino acids of PRMT-2, SEQ ID NO:3 (protein)
chain: MATSGDCPRSESQGEEPAECSEAGLLQEGVQPEEFVAIADYAATDETQLSFLRGEKILILRQTTADWWWGERAGCCGYIPANHVGKHVDEYDPEDTWQDEEYFGSYGTLKLHLEMLADQPRTTKYHSVILQNKESLTDKVILDVGCGTGIISLFCAHYARPRAVYAVEASEMAQHTGQLVLQNGFADIITVYQQKVEDVVLPEKVDVLVSEWMGTCLL
modifications: A synthetic PRMT-2-A mutant polypeptide
On to B2, for which, in the assay on NF-κB, the NF-κB activity result is recorded as “inhibited NF-κB activity”; the “IKK2- and p65-induced NF-κB activity” value is “inhibited both IKK2- and p65-induced NF-κB activity”. Further, the “association with endogenous IκB-α” value in the assay on IκB-α was “interacted”. The “expression from HIV-2 or HTLV reporter plasmids” value in assay [1] is listed as “No significant reduction”. Moreover, the “HIV-1 CAT expression” value in assay [1] (HIV-1 reporter plasmid) is listed as “substantially inhibited”.
